From US20230357411A1 (published 2023)
Substitutions are numbered along the chain they refer to. Values belong to the binder of their own block, whether it stands above or below them.

What was measured:
[1] = target: T1, Human-TrKA receptor on the surface of HEK293T-HumanTrKA cells (human, UniProt P04629 33-796); test: flow cytometry on HEK293T-HumanTrkA cells
T1 construct: whole, on cells
Protocol: (§1) Lentiviral technology was used to construct HEK293T-HumanTrkA cell model. […] Flow cytometry was used to detect the binding of each concentration gradient humanized antibody to the Human-TrKA receptor on the surface of HEK293T-HumanTrKA cells, and the binding ability of each humanized antibody to Human-TrKA was evaluated at the cellular level. In the FIG. 2, the EC50 (half binding concentration) value reflected the binding ability of the antibody to Human-TrKA; the smaller the EC50 value, the stronger the binding ability of the antibody to Human-TrKA, and the higher the affinity of the antibody. It was generally believed that the EC50 value of high-affinity antibodies was lower than 1.5 μg/mL.

[2] = target: T2, Mouse-TrKA on the surface of HEK293T-MouseTrKA cells (mouse, UniProt Q3UFB7 34-799); test: flow cytometry on HEK293T-MouseTrkA cells
T2 construct: whole, on cells
Protocol: as §1, with “construct HEK293T-MouseTrkA” for “construct HEK293T-HumanTrkA”, “of HEK293T-MouseTrKA” for “of HEK293T-HumanTrKA”, “to Mouse-TrKA” for “to Human-TrKA”, “FIG. 3,” for “FIG. 2,”, “to Mouse-TrKA;” for “to Human-TrKA;”, “to Mouse-TrKA,” for “to Human-TrKA,”

[3] = target: T1, Human-TrKA receptor on the surface of …; test: flow cytometry competition: inhibition of biotinylated Human-NGF binding to HEK293T-HumanTrkA cells
Excerpt: (§2) Human-NGF was biotinylated, and Human-NGF could bind to the extracellular region of Human-TrkA protein on HEK293T-HumanTrkA cells, and anti-TrkA monoclonal antibodies could also bind to the extracellular region of Human-TrkA protein on HEK293T-HumanTrkA cells. […] In the FIG. 4, the parent% value reflected the Human-NGF signal that bound to the extracellular region of the Human-TrKA protein on HEK293T-HumanTrkA cells.

[4] = target: T2, Mouse-TrKA on the surface of …; test: flow cytometry competition: inhibition of biotinylated Mouse-NGF binding to HEK293T-MouseTrkA cells
Excerpt: as §2, with “Mouse-NGF” for “Human-NGF”, “Mouse-TrkA” for “Human-TrkA”, “HEK293T-MouseTrkA” for “HEK293T-HumanTrkA”, “5,” for “4,”, “Mouse-TrKA” for “Human-TrKA”

[5] = target: CD16 receptor (Fc gamma RIIIA) on Jurkat-NFAT-Luc-CD16 cells (UniProt P08637 17-254, limits assumed); test: cell-based or functional assay
[6] = target: TrkA protein on the surface of NIH-3T3-TrkA cells; test: cell-based or functional assay

EC50 [1]: 0.168 mg/L
EC50 [2]: 0.125 mg/L
IC50 [3]: 0.665 mg/L
IC50 [4]: 0.252 mg/L
B2: humanized anti-TrkA monoclonal antibody H3L2-IgG4 (antibody, V domains shown)
VH: EVQLLESGGGLVQPGGSLKLSCKASGYAFTNYWLGWMKQRPGHGLEWIGDFYPRTGNTFYNENFKGQVTMSVDKSITTAYLQWNSLKASDTAMYYCARAGTGFDYWGQGTTLTVSS
VL: EIVMTQSPATLSLSVGERVTLSCKASENVGGYVSWYQQKPDQSPKLLIYGASSRATGVPDRFTGSGSETDFTLTISSVQAEDLAAYHCGQNYIYPFTFGGGTKLEIKR

down-regulation of the level of TrkA protein tyrosine phosphorylation under NGF stimulation (AlphaLISA, p-TrkA), IC50 [6]: 0.0207 mg/L
EC50 [2]: 0.134 mg/L
IC50 [4]: 0.385 mg/L
B5: humanized anti-TrkA monoclonal antibody H1L1-IgG4 (antibody)
heavy: EVQLLESGGGLVQPGGSLKLSCKASGYAFTNYWLGWMKQRPGHGLEWIGDFYPRTGNTFYNENFKGKVTLTADKSSNTAYMQLSSLTSEDSAVYLCARAGTGFDYWGQGTTLTVSSASTKGPSVFPLAPCSRSTSESTAALGCLVKDYFPEPVTVSWNSGALTSGVHTFPAVLQSSGLYSLSSVVTVPSSSLGTKTYTCNVDHKPSNTKVDKRVESKYGPPCPPCPAPEAAGGPSVFLFPPKPKDTLMISRTPEVTCVVVDVSQEDPEVQFNWYVDGVEVHNAKTKPREEQFNSTYRVVSVLTVLHQDWLNGKEYKCKVSNKGLPSSIEKTISKAKGQPREPQVYTLPPSQEEMTKNQVSLTCLVKGFYPSDIAVEWESNGQPENNYKTTPPVLDSDGSFFLYSKLTVDKSRWQEGNVFSCSVMHEALHNHYTQKSLSLSLG
light: EIVMTQSPATLSLSVGERVTLSCKASENVGGYVSWYQQKPDQSPKLLIYGASSRHTGVPDRFTGSGSETDFTLTISSVQAEDLAAYHCGQNYIYPFTFGGGTKLEIKRTVAAPSVFIFPPSDEQLKSGTASVVCLLNNFYPREAKVQWKVDNALQSGNSQESVTEQDSKDSTYSLSSTLTLSKADYEKHKVYACEVTHQGLSSPVTKSFNRGEC
notes: H1 + L1, IGHG4 heavy chain isotype (mutated Fc), kappa light chain

The next lines start with the binder.

B1: humanized anti-TrkA monoclonal antibody H3L1-IgG4 (antibody, V domains shown)
VH: B2 VH
VL: B2 VL with A55H
EC50 [1]: 0.127 mg/L
EC50 [2]: 0.111 mg/L
IC50 [3]: 0.741 mg/L
IC50 [4]: 0.283 mg/L

B3: humanized anti-TrkA monoclonal antibody H1L1-IgG1 (antibody)
VH: EVQLLESGGGLVQPGGSLKLSCKASGYAFTNYWLGWMKQRPGHGLEWIGDFYPRTGNTFYNENFKGKVTLTADKSSNTAYMQLSSLTSEDSAVYLCARAGTGFDYWGQGTTLTVSS
light: B5 light
ADCC activity, luciferase reporter (Mean Value), half of the peak concentration EC50 [5]: 0.0228 mg/L
CDC activity, killing of NIH-3T3-TrKA cells (CCK8 cell viability), half-peak concentration IC50 [6]: 0.222 mg/L

B4: human-mouse chimeric anti-TrkA monoclonal antibody 23E12 (H0L0-IgG4) (antibody)
heavy: B5 heavy with E1Q, L5Q, E6Q, G9A, G10E, Q13R, G16T, L18V, L20I
light: B5 light with E1S, A9K, T10S, L11M, L13M
notes: Printed mostly as 'HOLO-IgG4' (letter O for zero); also called HOLO-IgG4; chimeric antibody
EC50 [1]: 0.0867 mg/L
EC50 [2]: 0.105 mg/L
IC50 [3]: 0.881 mg/L
IC50 [4]: 0.396 mg/L
